Measurements as given in publication PMC6150406, “Adding an Artificial Tail—Anchor to a Peptide-Based HIV-1 Fusion Inhibitor for Improvement of Its Potency and Resistance Profile” (Molecules : A Journal of Synthetic Chemistry and Natural …, 2017).

How the values were obtained:
[1] = target: NHR peptide N46 (aa 536-581 of NHR) (HIV-1) (UniProt P04578); test: ELISA; inhibition of 6-HB formation between N46 and C34
[2] = target: gp41 V38A, N42T (T20-resistant HIV-1 strain) (HIV-1)
[3] = target: gp41 L34S/D36G/E49K/E136G (HP23-resistant HIV-1 strain) (HIV-1)
[4] = target: gp41 of the WT virus of the T20-resistant panel (HIV-1)
[5] = target: gp41 E49K (HP23-resistant HIV-1 strain) (HIV-1)
[6] = target: gp41 V38A, N42D (T20-resistant HIV-1 strain) (HIV-1)
[7] = target: gp41 D36G/E49K/N126K (HP23-resistant HIV-1 strain) (HIV-1)
[8] = target: gp41 V38A (T20-resistant HIV-1 strain) (HIV-1)
[9] = target: gp41 V38E, N42S (T20-resistant HIV-1 strain) (HIV-1)
[10] = target: gp41 E49K/N126K (HP23-resistant HIV-1 strain) (HIV-1)
[11] = target: gp41 of the wild-type virus of the HP23-resistant panel (HIV-1)
[12] = target: gp41 A6V (T2635-resistant HIV-1 strain) (HIV-1)
[13] = target: gp41 of the wild-type virus of the T2635-resistant panel (HIV-1)
[14] = target: gp41 Q66R/N113E (T2635-resistant HIV-1 strain) (HIV-1)
[15] = target: gp41 N113E (T2635-resistant HIV-1 strain) (HIV-1)
[16] = target: gp41 H3C (T2635-resistant HIV-1 strain) (HIV-1)
[17] = target: gp41 K90E (T2635-resistant HIV-1 strain) (HIV-1)
[18] = target: gp41 N126K (T2635-resistant HIV-1 strain) (HIV-1)
[19] = target: gp41 Q79E/N126K (T2635-resistant HIV-1 strain) (HIV-1)
[20] = target: gp41 Q79E (T2635-resistant HIV-1 strain) (HIV-1)
[21] = target: gp41 Q66R (T2635-resistant HIV-1 strain) (HIV-1)
[22] = target: gp41 K154Q (T2635-resistant HIV-1 strain) (HIV-1)
[23] = target: gp41 K90E/N126K (T2635-resistant HIV-1 strain) (HIV-1)
[24] = target: NHR peptide N46 (aa 536-581 of NHR) (HIV-1) (UniProt P04578); test: thermal denaturation followed by circular dichroism

Chain of NHR peptide N46 (aa 536-581 of NHR) (HIV-1) (P04578 536-581): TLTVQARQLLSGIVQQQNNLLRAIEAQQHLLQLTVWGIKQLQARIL

Q: HP23 was tested. Which IC50 [1] did it give?
A: 3.72 µM

Q: How did the IC50, inhibition of HIV-1 infection (p24 ELISA), T20-resistant panel, virus V38A, N42T; blocks gp41 NHR-CHR 6-HB formation [2] turn out when HP23 (peptide) was run?
A: 1.5 nM

Q: What about the IC50, inhibition of HIV-1 infection (p24 ELISA), HP23-resistant panel, virus L34S/D36G/E49K/E136G; blocks gp41 NHR-CHR 6-HB formation [3] of the same substance?
A: > 60 nM

Q: What about the IC50, inhibition of HIV-1 infection (p24 ELISA), T20-resistant panel, virus WT; blocks gp41 NHR-CHR 6-HB formation [4] of the same substance?
A: 3.1 nM

Q: And the IC50, inhibition of HIV-1 infection (p24 ELISA), HP23-resistant panel, virus E49K; blocks gp41 NHR-CHR 6-HB formation [5]?
A: 13.4 nM

Q: What about the IC50, inhibition of HIV-1 infection (p24 ELISA), T20-resistant panel, virus V38A, N42D; blocks gp41 NHR-CHR 6-HB formation [6] of the same substance?
A: 2.9 nM

Q: And the IC50, inhibition of HIV-1 infection (p24 ELISA), HP23-resistant panel, virus D36G/E49K/N126K; blocks gp41 NHR-CHR 6-HB formation [7]?
A: > 60 nM

Q: What about the IC50, inhibition of HIV-1 infection (p24 ELISA), T20-resistant panel, virus V38A; blocks gp41 NHR-CHR 6-HB formation [8] of the same substance?
A: 2.1 nM

Q: What about the IC50, inhibition of HIV-1 infection (p24 ELISA), T20-resistant panel, virus V38E, N42S; blocks gp41 NHR-CHR 6-HB formation [9] of the same substance?
A: 6.2 nM

Q: And the IC50, inhibition of HIV-1 infection (p24 ELISA), HP23-resistant panel, virus E49K/N126K; blocks gp41 NHR-CHR 6-HB formation [10]?
A: 53.8 nM

Q: What about the IC50, inhibition of HIV-1 infection (p24 ELISA), HP23-resistant panel, virus wild-type; blocks gp41 NHR-CHR 6-HB formation [11] of the same substance?
A: 3.3 nM

Q: And the IC50, inhibition of HIV-1 infection (p24 ELISA), T2635-resistant panel, virus A6V; blocks gp41 NHR-CHR 6-HB formation [12]?
A: 1.6 nM

Q: What about the IC50, inhibition of HIV-1 infection (p24 ELISA), T2635-resistant panel, virus wild-type; blocks gp41 NHR-CHR 6-HB formation [13] of the same substance?
A: 2.8 nM

Q: And the IC50, inhibition of HIV-1 infection (p24 ELISA), T2635-resistant panel, virus Q66R/N113E; blocks gp41 NHR-CHR 6-HB formation [14]?
A: 3.6 nM

Q: And the IC50, inhibition of HIV-1 infection (p24 ELISA), T2635-resistant panel, virus N113E; blocks gp41 NHR-CHR 6-HB formation [15]?
A: 2.3 nM

Q: And the IC50, inhibition of HIV-1 infection (p24 ELISA), T2635-resistant panel, virus H3C; blocks gp41 NHR-CHR 6-HB formation [16]?
A: 5.4 nM

Q: And the IC50, inhibition of HIV-1 infection (p24 ELISA), T2635-resistant panel, virus K90E; blocks gp41 NHR-CHR 6-HB formation [17]?
A: 9.4 nM

Q: And the IC50, inhibition of HIV-1 infection (p24 ELISA), T2635-resistant panel, virus N126K; blocks gp41 NHR-CHR 6-HB formation [18]?
A: 8.6 nM

Q: What about the IC50, inhibition of HIV-1 infection (p24 ELISA), T2635-resistant panel, virus Q79E/N126K; blocks gp41 NHR-CHR 6-HB formation [19] of the same substance?
A: 5.2 nM

Q: What about the IC50, inhibition of HIV-1 infection (p24 ELISA), T2635-resistant panel, virus Q79E; blocks gp41 NHR-CHR 6-HB formation [20] of the same substance?
A: 4.2 nM

Q: What about the IC50, inhibition of HIV-1 infection (p24 ELISA), T2635-resistant panel, virus Q66R; blocks gp41 NHR-CHR 6-HB formation [21] of the same substance?
A: 2.8 nM

Q: And the IC50, inhibition of HIV-1 infection (p24 ELISA), T2635-resistant panel, virus K154Q; blocks gp41 NHR-CHR 6-HB formation [22]?
A: 7.4 nM

Q: And the IC50, inhibition of HIV-1 infection (p24 ELISA), T2635-resistant panel, virus K90E/N126K; blocks gp41 NHR-CHR 6-HB formation [23]?
A: 4.2 nM

Q: What about the Tm of the 6-HB formed with N46 [24] of the same substance?
A: 81 °C
